Conditions in all cases: both partners purified
One experiment addresses T1, MET (Homo sapiens, UniProt P08581).
T1 construct: MET receptor; Further methods are said to stand in the Supplementary Information file
Briefly: SPR; Biacore; mean of three experiments; 107_A07 Fab purified sequentially on KappaSelect and GammaBind Plus; MET construct and who was immobilised not stated.

In the next experiment the target is T2, MET567 (Homo sapiens, UniProt P08581).
T2 construct: MET receptor (HGF/SF receptor), recombinant truncation of the ectodomain with the SEMA and CR domains and no Ig domain; The ectodomain is cut by furin into an alpha and a beta chain; written here as one chain; also called soluble fragment of the MET ectodomain comprising the SEMA and cysteine-rich (CR) domain
Briefly: SEC; 6 µM Fab and 4 µM MET (3:2 molar ratio) co-incubated 140 minutes at room temperature in 25 mM Tris pH 7.4, 150 mM NaCl; Superdex 200 10/300. (Size exclusion chromatography separates by hydrodynamic size, large species first.)

The target of experiment [1] is T3, MET928 (UniProt P08581).
T3 construct: MET receptor (HGF/SF receptor), recombinant ectodomain with the SEMA, CR and Ig1-4 domains; The ectodomain is cut by furin into an alpha and a beta chain; written here as one chain; also called MET extracellular domain (MET928); His-tagged MET928; source: recombinant
Briefly: SPR; CM5 chip coated with MET928; 7A2 scFv (134 nM, 268 nM), NK1 (238 nM, 476 nM) or a mixture (134 nM 7A2 scFv, 238 nM NK1); 60 s injections.

In another experiment the target is T4, MET741 (Homo sapiens, UniProt P08581).
T4 construct: MET receptor (HGF/SF receptor), recombinant truncation of the ectodomain with the SEMA, CR and Ig1-2 domains; The ectodomain is cut by furin into an alpha and a beta chain; written here as one chain; also called soluble MET741; his-tagged MET741; source: CHO Lec3.2.8.1 cells, purified (NiNTA, cation exchange MonoS)
Briefly: SEC; 6 µM Fab and 4 µM MET (3:2 molar ratio) co-incubated 140 minutes at room temperature in 25 mM Tris pH 7.4, 150 mM NaCl; Superdex 200 10/300.

The target in experiment [2] is T3, MET928. The description is as above.

T3 sequence (P08581 25-932): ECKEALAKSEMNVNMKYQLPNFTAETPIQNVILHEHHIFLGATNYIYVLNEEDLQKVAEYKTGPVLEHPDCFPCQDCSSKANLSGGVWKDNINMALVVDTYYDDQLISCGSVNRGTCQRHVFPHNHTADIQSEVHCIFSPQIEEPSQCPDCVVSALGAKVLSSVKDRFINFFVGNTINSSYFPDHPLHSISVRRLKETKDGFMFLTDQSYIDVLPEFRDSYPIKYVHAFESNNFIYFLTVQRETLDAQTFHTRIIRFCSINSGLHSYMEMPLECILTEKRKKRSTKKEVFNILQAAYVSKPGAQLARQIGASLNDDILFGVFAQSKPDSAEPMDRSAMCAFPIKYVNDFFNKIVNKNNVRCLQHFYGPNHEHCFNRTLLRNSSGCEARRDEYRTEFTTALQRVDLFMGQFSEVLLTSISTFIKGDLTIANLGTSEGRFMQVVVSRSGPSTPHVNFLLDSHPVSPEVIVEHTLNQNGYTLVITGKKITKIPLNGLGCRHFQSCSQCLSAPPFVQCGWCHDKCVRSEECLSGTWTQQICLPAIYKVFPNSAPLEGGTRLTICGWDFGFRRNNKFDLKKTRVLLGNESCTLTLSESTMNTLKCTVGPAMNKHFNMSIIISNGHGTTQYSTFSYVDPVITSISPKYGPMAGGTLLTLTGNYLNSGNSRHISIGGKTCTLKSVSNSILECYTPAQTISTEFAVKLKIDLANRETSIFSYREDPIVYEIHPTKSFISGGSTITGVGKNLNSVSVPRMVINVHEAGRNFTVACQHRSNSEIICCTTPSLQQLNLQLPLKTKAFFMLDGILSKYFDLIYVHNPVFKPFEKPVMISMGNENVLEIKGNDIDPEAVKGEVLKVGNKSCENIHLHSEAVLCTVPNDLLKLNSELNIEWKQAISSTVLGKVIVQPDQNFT
T2 sequence (P08581 39-564): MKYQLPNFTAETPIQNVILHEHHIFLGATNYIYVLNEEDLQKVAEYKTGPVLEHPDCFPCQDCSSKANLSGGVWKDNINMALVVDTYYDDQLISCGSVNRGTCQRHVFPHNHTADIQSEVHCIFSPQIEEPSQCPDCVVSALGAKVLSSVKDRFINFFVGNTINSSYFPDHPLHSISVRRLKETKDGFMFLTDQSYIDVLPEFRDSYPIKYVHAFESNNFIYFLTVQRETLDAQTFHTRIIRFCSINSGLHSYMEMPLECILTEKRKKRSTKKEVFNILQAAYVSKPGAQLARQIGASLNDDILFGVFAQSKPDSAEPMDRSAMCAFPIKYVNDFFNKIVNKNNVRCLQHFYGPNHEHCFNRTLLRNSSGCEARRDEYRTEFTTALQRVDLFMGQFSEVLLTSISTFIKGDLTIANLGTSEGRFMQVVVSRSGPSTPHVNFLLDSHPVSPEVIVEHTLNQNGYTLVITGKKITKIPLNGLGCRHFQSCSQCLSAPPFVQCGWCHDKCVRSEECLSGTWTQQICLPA
T1 sequence (P08581 25-1390): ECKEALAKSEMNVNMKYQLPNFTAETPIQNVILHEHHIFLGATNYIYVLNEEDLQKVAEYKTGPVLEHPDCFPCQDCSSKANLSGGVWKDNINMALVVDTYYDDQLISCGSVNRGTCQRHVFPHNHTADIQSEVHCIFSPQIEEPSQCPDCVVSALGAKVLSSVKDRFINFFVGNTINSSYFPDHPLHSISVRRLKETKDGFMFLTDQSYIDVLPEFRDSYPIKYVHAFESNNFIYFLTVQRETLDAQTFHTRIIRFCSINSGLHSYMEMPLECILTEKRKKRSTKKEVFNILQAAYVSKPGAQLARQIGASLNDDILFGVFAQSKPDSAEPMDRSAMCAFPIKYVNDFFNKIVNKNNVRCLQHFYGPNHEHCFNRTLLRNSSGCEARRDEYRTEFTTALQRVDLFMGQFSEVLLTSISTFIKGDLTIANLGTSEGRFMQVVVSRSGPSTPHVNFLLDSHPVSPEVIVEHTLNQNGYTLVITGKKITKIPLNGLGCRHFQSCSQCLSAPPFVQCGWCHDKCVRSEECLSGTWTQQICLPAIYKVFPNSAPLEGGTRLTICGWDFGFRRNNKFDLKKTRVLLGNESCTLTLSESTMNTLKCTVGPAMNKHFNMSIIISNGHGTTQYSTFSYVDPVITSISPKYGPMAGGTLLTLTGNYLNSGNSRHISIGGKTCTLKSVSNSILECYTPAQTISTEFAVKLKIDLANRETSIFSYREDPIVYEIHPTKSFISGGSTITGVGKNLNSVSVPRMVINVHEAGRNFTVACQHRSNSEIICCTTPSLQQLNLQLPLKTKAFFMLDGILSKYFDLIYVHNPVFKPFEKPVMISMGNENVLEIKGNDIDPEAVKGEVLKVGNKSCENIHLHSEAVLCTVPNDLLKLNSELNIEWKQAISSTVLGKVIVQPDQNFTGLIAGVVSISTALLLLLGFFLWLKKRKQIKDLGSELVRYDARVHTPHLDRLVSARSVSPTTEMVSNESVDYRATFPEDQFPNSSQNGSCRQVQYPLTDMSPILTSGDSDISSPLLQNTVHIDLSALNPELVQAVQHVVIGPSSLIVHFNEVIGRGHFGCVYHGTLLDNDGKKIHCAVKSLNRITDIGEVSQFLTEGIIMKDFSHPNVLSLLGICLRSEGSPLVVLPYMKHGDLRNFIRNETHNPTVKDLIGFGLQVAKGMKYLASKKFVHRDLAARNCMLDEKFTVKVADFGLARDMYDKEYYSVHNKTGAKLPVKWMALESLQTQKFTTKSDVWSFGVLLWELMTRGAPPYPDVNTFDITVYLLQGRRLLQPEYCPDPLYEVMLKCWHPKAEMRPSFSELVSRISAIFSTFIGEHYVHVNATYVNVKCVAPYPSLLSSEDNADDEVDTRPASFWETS
T4 sequence (P08581 25-741): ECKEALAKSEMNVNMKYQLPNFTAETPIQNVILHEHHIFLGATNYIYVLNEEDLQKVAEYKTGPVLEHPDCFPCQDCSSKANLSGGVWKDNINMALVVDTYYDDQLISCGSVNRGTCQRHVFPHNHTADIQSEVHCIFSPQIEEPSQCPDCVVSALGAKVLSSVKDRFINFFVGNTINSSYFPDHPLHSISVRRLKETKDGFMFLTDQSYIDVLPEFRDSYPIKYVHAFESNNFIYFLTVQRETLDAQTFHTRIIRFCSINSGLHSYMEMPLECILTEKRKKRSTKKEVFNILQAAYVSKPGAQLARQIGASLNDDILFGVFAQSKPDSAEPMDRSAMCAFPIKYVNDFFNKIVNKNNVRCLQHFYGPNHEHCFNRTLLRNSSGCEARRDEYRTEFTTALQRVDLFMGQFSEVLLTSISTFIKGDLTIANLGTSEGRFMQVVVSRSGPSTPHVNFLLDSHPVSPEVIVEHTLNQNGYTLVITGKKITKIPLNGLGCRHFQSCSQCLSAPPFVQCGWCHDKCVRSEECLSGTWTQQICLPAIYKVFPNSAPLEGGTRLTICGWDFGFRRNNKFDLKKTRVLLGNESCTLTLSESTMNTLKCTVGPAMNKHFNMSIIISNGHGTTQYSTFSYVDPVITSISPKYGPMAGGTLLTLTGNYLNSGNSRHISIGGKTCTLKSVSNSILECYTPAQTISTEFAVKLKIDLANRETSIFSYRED

B1: 107_A07 Fab (Fab, V domains shown)
VH: QMQLVQSGAEVKKPGAPVKVSCKVSGYTFTDYYMHWVQQAPGKGLEWMGLVDPEDGETIYAEKFQGRVTITADTSTDTAYMELSSLRSEDTAVYYCATDATTPYWGMMWWGQGTLVTVSS
VL: DIQMIQSPSSLSASVGDRVTITCQASQDISNYLNWYQQKPGRAPKVLIYDASNLETGVPSRFSGSGSGTEFTLTISNLRPDDFATYYCQQGDSFPLTFGGGTKVEIK
notes: Fab heavy chain is chain H of the deposited structure PDB 5LSP; Fab light chain is chain L of the deposited structure PDB 5LSP
On to B1, for which the Kd (as a rule, the constant that tells how readily two partners part at equilibrium) with MET stood at 3.2 nM. Also, the binding result with MET567 is recorded as “no binding (tested: 6 µM Fab, 4 µM MET567)”.

B2: 7A2 scFv (scFv, V domains shown)
VH: QMQLVQSGAEVKKPGAPVKVSCKVSGYTFTDYYMHWVQQAPGKGLEWMGLVDPEDGETIYAEKFQGRVTITADTSTDTAYMELSSLRSEDTAVYYCATDATTPYYGMDVWGQGTLVTVSS
VL: DIQMTQSPSSLSASVGDRVTITCQASQDISNYLNWYQQKPGRAPKVLIYDASNLETGVPSRFSGSGSGTEFTLTISNLRPDDFATYYCQQGDSFPLTFGGGTKVEIK
notes: VH of 7A2: as the VH of m1 (PDB 5LSP chain H) except in CDR3, where 7A2 has Y105 instead of W105; VL of 7A2: as the VL of m1 (PDB 5LSP chain L); also called clone 7A2; source: Pichia pastoris, purified (Ni-NTA, gel filtration)
In the case of B2, the binding result with MET928 [1] is on record as “binds”.

B3: 7A2 Fab (Fab, V domains shown)
VH: QMQLVQSGAEVKKPGAPVKVSCKVSGYTFTDYYMHWVQQAPGKGLEWMGLVDPEDGETIYAEKFQGRVTITADTSTDTAYMELSSLRSEDTAVYYCATDATTPYYGMDVWGQGTLVTVSS
VL: DIQMTQSPSSLSASVGDRVTITCQASQDISNYLNWYQQKPGRAPKVLIYDASNLETGVPSRFSGSGSGTEFTLTISNLRPDDFATYYCQQGDSFPLTFGGGTKVEIK
notes: as the light chain of m1 (PDB 5LSP chain L): the matured clones came from VH CDR3 mutagenesis and VL mutants were not identified; also called Fab 7A2; Fab-formatted 7A2
In the case of B3, the binding result in the experiment with MET741 is given as “binds”; with MET567, “no binding (tested: 6 µM Fab, 4 µM MET567)”; with MET928 [2] it was “binds”.
